± gives the standard deviation of the averaged measurements.
Tested on: Saccharomyces cerevisiae
Test: protein stability index of tFT-peptide fusion (C-terminal peptide) (PSI (0-1 scale)); higher = more stable (slower turnover)
Conditions: genetic background: wild type; temperature: 30 C
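Further: PSI is a weighted mean of sequencing reads over stability bins, variants kept only with over 10 reads, mCherry proximal and sfGFP distal, peptide attached via GGGS linker.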

| Sequence | protein stability index |
| --- | --- |
| NSYVGSSTYVIV | 0.692 ± 0.033 |
| GVQEGGGVARGG | 0.639 ± 0.018 |
| DGGHSFLSVARG | 0.644 ± 0.04 |
| KVKIKREKKKRK | 0.672 ± 0.017 |
| PPLPPLRPIRSP | 0.702 ± 0.035 |
| LSSRSDVLTYFV | 0.639 ± 0.022 |
| LHSPWPFSAPGI | 0.855 ± 0.2 |
| GLFSTRLFCTFL | 0.635 ± 0.026 |
| EPYHYAWTQRSW | 0.698 ± 0.015 |
| GVEDRFGGSCGL | 0.639 ± 0.049 |
| KNIKENIGDKNK | 0.646 ± 0.06 |
| FFSGYVVSTRHM | 0.702 ± 0.089 |
| RRERQRRARTEI | 0.6876 ± 0.0036 |
| DIERRMEVINNG | 0.696 ± 0.032 |
| PSGDYVVLTTVS | 0.6901 ± 0.0038 |
| TFPPLSPSPPLS | 0.727 ± 0.13 |
| VHLCLPPLPLHT | 0.651 ± 0.019 |
| ARLPCVVFLLDE | 0.666 ± 0.036 |
| PLLSSPAHPLPP | 0.687 ± 0.053 |
| FHPRLGVRLGIT | 0.632 ± 0.046 |
| GFGEFVLSSGWG | 0.743 ± 0.018 |
| FQVCAPLPISRS | 0.717 ± 0.029 |
| KVIRVEALEILV | 0.544 ± 0.023 |
| GVIKLTQEKAST | 0.679 ± 0.017 |
| LLVVSIGSCFFG | 0.572 ± 0.065 |
| PHAEESNSTLSP | 0.765 ± 0.12 |

| Sequence | protein stability index |
| --- | --- |
| PVSSPPRPAPSP | 0.677 ± 0.025 |
| RVVCGGMGVRRG | 0.63 ± 0.077 |
| IKKSMKSLTRTE | 0.735 ± 0.015 |
| SGEEVRSVARFF | 0.629 ± 0.035 |
| KKEKSQTKKQNI | 0.684 ± 0.12 |
| YRIMRRKEKEER | 0.669 ± 0.026 |
| DPQRQDVFRVSE | 0.6823 ± 0.0021 |
| GNFAGLTRDRGP | 0.674 ± 0.052 |
| GGVGWWWVRGMG | 0.741 ± 0.029 |
| MCWFDVSEWGLG | 0.754 ± 0.091 |
| SPPPPPTSPPPY | 0.638 ± 0.0091 |
| DRRQLSVVARRT | 0.648 ± 0.027 |
| GGGGQVWSCRLC | 0.678 ± 0.077 |
| VWRHSGRVASLA | 0.624 ± 0.0098 |
| TRGKETESIDSR | 0.685 ± 0.036 |
| PSLPPHPPSPLP | 0.742 ± 0.053 |
| KNKVTRNEKGIT | 0.639 ± 0.047 |
| RAGSLTSGVCGP | 0.663 ± 0.015 |
| PLSPTSPLPSPA | 0.6779 ± 0.0039 |
| QRTQRGKQPGQR | 0.679 ± 0.08 |
| SPADALPLPGCG | 0.707 ± 0.05 |
| GWWCAGVREWTR | 0.8 ± 0.013 |
| RQRSKEPVVQAY | 0.654 ± 0.046 |
| CFPRVLFPVAAP | 0.608 ± 0.049 |
| TFPGRLPLTRLP | 0.726 ± 0.038 |
| FSLWPVRFVVDR | 0.679 ± 0.041 |

| Sequence | protein stability index |
| --- | --- |
| GIPPFFTLCRLS | 0.57 ± 0.034 |
| KGETSYTGIAVG | 0.667 ± 0.085 |
| RVCLVVWRECWF | 0.509 ± 0.0082 |
| GPGPRLSCLVPT | 0.73 ± 0.035 |
| FSSPSFRSSLLL | 0.679 ± 0.015 |
| GLRPPGLRLGSL | 0.6475 ± 0.0047 |
| PPPPPPSPHPPL | 0.709 ± 0.01 |
| PAPCPLFVPSPT | 0.655 ± 0.012 |
| QWFTCLFYFRSP | 0.5697 ± 0.0029 |
| KSPYNTPLSLVL | 0.672 ± 0.024 |
| PPLTSSPPFSPP | 0.728 ± 0.09 |
| LPATLPPPPAPP | 0.705 ± 0.036 |
| YGEGSPPCMPEL | 0.709 ± 0.017 |
| GLDRCFTSFYSI | 0.702 ± 0.059 |
| YNVRNVSVHQLG | 0.644 ± 0.015 |
| QVGGVRSRGAAG | 0.664 ± 0.017 |
| EIVKAHKVKKRK | 0.7166 ± 0.0045 |
| KMGGKRTKKIGQ | 0.694 ± 0.086 |
| VFRFRARRYNES | 0.655 ± 0.079 |
| LASARPLILSWP | 0.628 ± 0.019 |
| RYLAEKAVLTHN | 0.659 ± 0.012 |
| GGGGGGVECRVG | 0.671 ± 0.086 |
| RVDLPFDRSVSD | 0.702 ± 0.057 |
| PPHPPPLLPFSI | 0.764 ± 0.009 |
| GLGPMPRGTSTI | 0.692 ± 0.1 |
| KEKGSRYKRALS | 0.679 ± 0.014 |

| Sequence | protein stability index |
| --- | --- |
| VVVGGVWIRRVW | 0.654 ± 0.052 |
| FPSPPLPSSSTS | 0.708 ± 0.051 |
| SHRYFFLAFSGL | 0.655 ± 0.02 |
| LPHPPPLPTPPP | 0.739 ± 0.13 |
| SNGFYVSRPIVY | 0.769 ± 0.017 |
| GGGTVGCVVALA | 0.64 ± 0.017 |
| PPNPPPNPPSRY | 0.738 ± 0.047 |
| SSSWILCRFGRS | 0.664 ± 0.041 |
| SEGSRGYLLEIQ | 0.69 ± 0.029 |
| IDPTLPARAAPP | 0.737 ± 0.029 |
| WESGRNNWYMNK | 0.798 ± 0.13 |
| KHPLAPLRRPVI | 0.68 ± 0.0078 |
| GGSFVLGAALGV | 0.668 ± 0.039 |
| CLEGCTIHTSGE | 0.652 ± 0.015 |
| FVALWVGCCWLG | 0.542 ± 0.011 |
| APPPPPVPLPPP | 0.722 ± 0.024 |
| STPLLLSPPLFC | 0.649 ± 0.04 |
| LLRSCLTLFARR | 0.668 ± 0.021 |
| SPPRSCLPRPPD | 0.676 ± 0.05 |
| LHLDTMPQEKNN | 0.668 ± 0.036 |
| VIGWSGGCRWSV | 0.73 ± 0.027 |
| PLPSVPESPAPP | 0.693 ± 0.045 |
| SCIIWPAKGCPF | 0.687 ± 0.054 |
| FLCLVASLFRFA | 0.585 ± 0.043 |
| AQDSFGFPPPPS | 0.726 ± 0.018 |
| PPRLHPAPPPRT | 0.747 ± 0.033 |

| Sequence | protein stability index |
| --- | --- |
| VSVRLAINRKEW | 0.6738 ± 0.00093 |
| RYELSLRLYGSL | 0.623 ± 0.089 |
| VYEGIQEKTTRQ | 0.5754 ± 0.0057 |
| SGSVRSCSNTCL | 0.6935 ± 0.0011 |
| WVLFRNKSVAAS | 0.527 ± 0.012 |
| GRRTNLCERLAL | 0.722 ± 0.042 |
| SFCSSVFWFFWL | 0.584 ± 0.037 |
| CSVVMGFYCRGA | 0.694 ± 0.038 |
| KGKTARDVLLLV | 0.58 ± 0.013 |
| KKIRKKLKKMKM | 0.644 ± 0.053 |
| GSEISTRGVGRR | 0.6647 ± 0.0013 |
| LYDAALHTKIFR | 0.634 ± 0.012 |
| GLLQRCGAWRGS | 0.656 ± 0.04 |
| RKSTVILLLTDT | 0.668 ± 0.054 |
| RSRRFPPTRPPL | 0.73956 ± 0.00073 |
| WGCGGGRDGCGV | 0.647 ± 0.095 |
| SENKRKEHRMSF | 0.712 ± 0.05 |
| GAAIRVNRCGEG | 0.64136 ± 0.00011 |
| GVVGCSCLGCGF | 0.717 ± 0.054 |
| RALPSPPPCPPG | 0.524 ± 0.031 |
| TGPIIPSDNRFL | 0.692 ± 0.04 |
| PPPLPPAPPSPP | 0.703 ± 0.19 |
| GVCSWLVFGGWA | 0.684 ± 0.056 |
| RVMPRVNDKKGI | 0.732 ± 0.092 |
| PPSPAPLHPSTS | 0.661 ± 0.047 |
| VLPPPRHPLPRP | 0.698 ± 0.04 |

| Sequence | protein stability index |
| --- | --- |
| SRPATGSVTFPP | 0.694 ± 0.0098 |
| LASEPLPPYPPS | 0.704 ± 0.052 |
| VTTPHPPAPPPP | 0.765 ± 0.02 |
| AVQTTGRAGRVG | 0.683 ± 0.056 |
| GSVGSRIFLVHV | 0.602 ± 0.086 |
| PTPPSARAPPTT | 0.686 ± 0.032 |
| PHRSRPPPTPPV | 0.625 ± 0.061 |
| KNNNREKLRQSM | 0.623 ± 0.056 |
| AWAVGPTICRRG | 0.7219 ± 0.0021 |
| SRHPSFPLPMPL | 0.746 ± 0.086 |
| RERASCHSHTNS | 0.675 ± 0.013 |
| SKLVEIIMKLQG | 0.618 ± 0.055 |
| RMGGRGGRLGAE | 0.657 ± 0.018 |
| PGIAVPTGTSYV | 0.617 ± 0.06 |
| LRFRTNYFFSRV | 0.665 ± 0.063 |
| VTSSLHAVPWSR | 0.693 ± 0.0088 |
| LGVIHPSVYFCL | 0.5416 ± 0.0023 |
| LFSLPPPSPPPR | 0.694 ± 0.03 |
| PPPRHSPRPPCI | 0.746 ± 0.11 |
| PSRPPALPPPAT | 0.721 ± 0.014 |
| TTSSRDYIELLL | 0.729 ± 0.016 |
| PPAPPLFVSSPG | 0.684 ± 0.048 |
| EPGGSKRSGGRL | 0.686 ± 0.03 |
| RSTLSPSPRPSP | 0.674 ± 0.0042 |
| PPSPPPPPPPTP | 0.699 ± 0.043 |
| LLCFGGRGPLAD | 0.713 ± 0.028 |

| Sequence | protein stability index |
| --- | --- |
| PLLPLSFRIPPF | 0.702 ± 0.014 |
| CSLFIRCAPFCG | 0.705 ± 0.017 |
| INPLAHCSISRS | 0.7086 ± 0.0066 |
| PARPLFAPSFFT | 0.699 ± 0.047 |
| GGSCGFGQGAGG | 0.685 ± 0.025 |
| GALYAGWRGPTC | 0.669 ± 0.031 |
| TPPSPDPSPPNT | 0.789 ± 0.046 |
| RRWGGCPGVRGC | 0.666 ± 0.019 |
| VSPTRSRPSSPA | 0.692 ± 0.055 |
| HAPSRAPFPTAS | 0.71 ± 0.067 |
| KSKTRTKLYSRN | 0.6421 ± 0.0017 |
| PPTPAPLSPPYV | 0.712 ± 0.026 |
| VLLAVGELFRVD | 0.649 ± 0.0084 |
| PYGFNPSANGSS | 0.696 ± 0.068 |
| GGVEGGGCVGGG | 0.581 ± 0.014 |
| ERARGGRGVGGN | 0.678 ± 0.033 |
| SLVGFLPLWPSS | 0.64 ± 0.0085 |
| YYAFITERYRHN | 0.6069 ± 0.0046 |
| FSLSLACPPPHS | 0.679 ± 0.19 |
| FGVSFFSGVNGV | 0.681 ± 0.011 |
| LPPLAPASHHLC | 0.493 ± 0.016 |
| HPWAFRIRTPRL | 0.752 ± 0.09 |
| PPSPPPPPKIPP | 0.627 ± 0.055 |
| RAPPRLHPPFPP | 0.676 ± 0.11 |
| SKDFLLILDPAK | 0.662 ± 0.021 |
| PSLSYSRPPHPS | 0.681 ± 0.027 |

| Sequence | protein stability index |
| --- | --- |
| YGNSFLVRPPGD | 0.712 ± 0.05 |
| DRCSRFRCFFVG | 0.6 ± 0.031 |
| SAHPFLPLFSPP | 0.718 ± 0.012 |
| FPRPPSVLACRP | 0.645 ± 0.088 |
| RSCCSFRLEPYC | 0.671 ± 0.026 |
| RASAHLVAIVRY | 0.642 ± 0.02 |
| ECGLGGCGGLGV | 0.705 ± 0.03 |
| EIKGKLQEGRMD | 0.75 ± 0.021 |
| GPLATACPPALT | 0.701 ± 0.046 |
| ERKKKKKERARG | 0.767 ± 0.1 |
| NGPYKAGSIVLI | 0.664 ± 0.027 |
| SLCTAGCKNELW | 0.692 ± 0.076 |
| GLRPPPLRPAPP | 0.704 ± 0.08 |
| GGFFPRISSLTV | 0.707 ± 0.054 |
| TTRACVTRGCSV | 0.623 ± 0.051 |
| VERRNAVGTDEK | 0.611 ± 0.063 |
| SPNSCSVDYFAT | 0.61 ± 0.055 |
| RIGKKKRYNEKS | 0.751 ± 0.062 |
| PLPPLSSPRPPP | 0.711 ± 0.071 |
| VSGGRQVGWGGW | 0.686 ± 0.011 |

— the supplement of paper PMC10724198
